From the nanobody polyreactivity screen of Harvey et al. (2022)

assay: yeast display, Sf9 membrane polyspecificity reagent, FACS + sequencing; frameworks hold sequencing errors
Outline: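 Using colony PCR, genes from sorted yeast display clones were amplified, then sequenced on MiSeq at 2 × 250 and filtered by CDR length. The clones had been stained with 10% biotinylated, detergent-solubilized Sf9 membrane reagent for 1 hour at 4 °C and sorted by FACS into low and high (top ~1%) gates on anti-HA and streptavidin fluorescence. Polyreactivity labels come from the gate of origin.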

Sequence | polyreactivity (PSR sort gate)
QVQLVESGGGLVQAGGSLRLSCAASGSTFSVNAMGWYRQAPGKEREFVAAIRWPGGSTYYADSVKGRFTFSRDKAKNTVYLQMNSLKPEDTAVYYCAARIKYRYDWGQGTQVTVSS | low polyreactivity
QVQLVESGGGLVQAGGSLRLSCAASGSTFSVYAMGWYRQAPGKERELVAAISSSGANTYYADSVKGRFTISRDNAKNTVYLQMNSLKPEDTAVYYCAAYVSGGYEYDYWGQGTQVTVSS | low polyreactivity
QVQLVESGGGLVQAGGSLRLSCAASGSTFSVYAMGWYRQAPGKERELVATISWGGGITYYADSVKGRFTISRDNAKNTVYLQMNSLKPEDTAVYYCAAYARYPRYYYWGQGTQVTVSS | high polyreactivity
QVQLVESGGGLVQAGGSLRLSCAASGSTFSWNTMGWYRQAPGKERELVAAINSGGSTYYADSVKGRFTISRDNAKNTVYLQMNSLKPEDTAVYYCAARTNYYGRFDYWGQGTQVTVSS | low polyreactivity
QVQLVESGGGLVQAGGSLRLSCAASGSTFSWYAMGWYRQAPGKERELVAAISYSGGTYYADSVKGRFTISRDNEKNTVYLQMNSLKPEYNAVYYCAALRTRYGYDYWGQGTQVTLSS | high polyreactivity
QVQLVESGGGLVQAGGSLRLSCAASGSTFSYAMGWYRQAPGKERELVAAITTSGGSTYYADSVKGRFTISRDNAKNTVYLQMNSLKPVDTAVDYCARERYYRRFYRPRRYDYWGQGTQVTVSS | low polyreactivity
QVQLVESGGGLVQAGGSLRLSCAASGSTFSYNAMGWYRQAPGKERELVAAISFISGSTYYADSVKGRFTISRDNAKNTVYLQMNSLKPEDTAVYYCNAGRTRRRDYYWQYDYWGQGTQVTVSS | high polyreactivity
QVQLVESGGGLVQAGGSLRLSCAASGSTFSYYAMGWYRQAPGKERELVAAIRKSGGSTYYADSVKGRFTISRDNAKNTVYLQMNSLKPEDTAVYSCAAVFSYYGWYSRYDYWGQGTQVTVSS | low polyreactivity
QVQLVESGGGLVQAGGSLRLSCAASGSTFSYYAMGWYRQAPGKERELVAAITSSGGRTYYADSVKGRFTISRDNAKYTVYLQMNSLKPEDTAVYYCATRKPRYQRAFDSWGQGTQVTVSA | high polyreactivity
QVQLVESGGGLVQAGGSLRLSCAASGSTFSYYAMGWYRQAPGKERELVAAITTSGGRTYYADSVKGRFTISRDNAKFTVYLQMNSLKPEDTAVYYCNARSGRLGDYWGQGTQVTVSS | high polyreactivity
QVQLVESGGGLVQAGGSLRLSCAASGSTFSYYAMGWYRQAPGKERELVAVISWSGGSTYYADSVKGRFTISRDNAKNTVYLQMNSLKPEDTAVYYCAARGYVRWYNRYDYWGQGTQVTVSS | low polyreactivity
QVQLVESGGGLVQAGGSLRLSCAASGSTFSYYTMGWYRPAPGKERELVAAITRRGDSTYADSVKGRFTISRDNAKNTGYLQMNSLKPEATAVYYCAADASVGVSGMDYWGQGTQVTVSS | low polyreactivity
QVQLVESGGGLVQAGGSLRLSCAASGSTFTAKAMGWYRQAPGKERELVASISARDGSTYADSVKGRFTISRDNAKNTVYLQMNSLKPEDTAVYYCNAAYFHIFPYDYDYWGQGTQVTVSS | low polyreactivity
QVQLVESGGGLVQAGGSLRLSCAASGSTFTANAMGWYRQAPWKERELVASISAREGSTYADSVKGRFTISRDNANNTVYLQMNSLKPEDTAVYYCNAAYFHIFPYDYDYWGQCTQVTVSS | low polyreactivity
QVQLVESGGGLVQAGGSLRLSCAASGSTFTAYAMGWYRQAPGKERELVAAISKRSGGTYYADSVKGRFTISRDNAKNTVYLQMNSLKPEDTAVYYCGQGTQVTVSS | low polyreactivity
QVQLVESGGGLVQAGGSLRLSCAASGSTFTAYAMGWYRQAPGKERELVAVITSGGGTFYADSVKGRFTISRDNAKNTVYLQMNSLKPEDTAVYYCNAARTYPGTYIYRYGYWGQGTQVTVSP | high polyreactivity
QVQLVESGGGLVQAGGSLRLSCAASGSTFTFNAMGWYRQAPGKERELVAAITSRGGSTYYADSVKGRFTISRDNAKNTVYLQMNSLKPEDTAVYYCAATLRGQKTRREYWGQGTQVTVSS | high polyreactivity
QVQLVESGGGLVQAGGSLRLSCAASGSTFTGNAMGWSRQAPGKERELVAAITDRGGSTYADSVKGRFTISRDNAKNTVYLQMNSLKPEDSAVYYCATRRDLHDRYEYDYWGQGTQVTVSS | low polyreactivity
